Assay results published in patent US20200002405A1 (ADMINISTRATORS OF THE TULANE EDUCATIONAL FUND, published 2020).
Like-named read-outs stand apart in the source and are kept apart here.

T1: LASV Josiah (lineage IV) glycoprotein, full-length GP (Lassa virus, Josiah strain, UniProt P08669 2-491)
T1 sequence: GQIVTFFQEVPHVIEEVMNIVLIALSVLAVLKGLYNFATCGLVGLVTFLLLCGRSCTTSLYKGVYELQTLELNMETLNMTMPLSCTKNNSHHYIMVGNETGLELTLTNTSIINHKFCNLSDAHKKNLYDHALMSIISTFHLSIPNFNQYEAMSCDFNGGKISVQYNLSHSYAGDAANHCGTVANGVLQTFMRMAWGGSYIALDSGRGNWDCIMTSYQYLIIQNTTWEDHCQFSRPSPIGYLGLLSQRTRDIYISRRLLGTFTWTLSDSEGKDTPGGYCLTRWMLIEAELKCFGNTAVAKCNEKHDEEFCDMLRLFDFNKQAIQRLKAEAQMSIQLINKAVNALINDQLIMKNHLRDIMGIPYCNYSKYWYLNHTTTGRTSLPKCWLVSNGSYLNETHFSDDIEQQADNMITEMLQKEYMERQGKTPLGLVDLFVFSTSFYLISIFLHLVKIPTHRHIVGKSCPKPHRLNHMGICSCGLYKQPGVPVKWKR

T2: LCMV WE strain GP (LCMV, WE strain, UniProt P07399 2-498)
T2 construct: whole, on cells
T2 sequence: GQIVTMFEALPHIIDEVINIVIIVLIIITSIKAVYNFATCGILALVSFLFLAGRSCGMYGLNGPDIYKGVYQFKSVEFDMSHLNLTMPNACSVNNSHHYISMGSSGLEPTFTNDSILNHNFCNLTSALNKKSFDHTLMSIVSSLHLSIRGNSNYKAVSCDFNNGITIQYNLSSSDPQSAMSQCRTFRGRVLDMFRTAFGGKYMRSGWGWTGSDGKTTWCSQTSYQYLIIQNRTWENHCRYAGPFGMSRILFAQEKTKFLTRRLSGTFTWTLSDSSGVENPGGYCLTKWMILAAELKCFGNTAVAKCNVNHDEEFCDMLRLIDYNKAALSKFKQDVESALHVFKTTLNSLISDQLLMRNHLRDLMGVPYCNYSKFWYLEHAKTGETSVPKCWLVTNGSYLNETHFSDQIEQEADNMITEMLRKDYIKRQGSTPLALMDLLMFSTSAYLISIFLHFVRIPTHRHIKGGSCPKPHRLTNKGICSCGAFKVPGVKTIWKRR


Assays:
[1] = biological target: LASV A19 (lineage II) glycoprotein (Lassa virus, strain A19); assay: cell-based or functional assay
[2] = biological target: LASV 237 (lineage III) glycoprotein (Lassa virus, strain 237); assay: cell-based or functional assay
[3] = biological target: LASV Pinneo (lineage I) glycoprotein (Lassa virus, strain Pinneo); assay: cell-based or functional assay
[4] = biological target: T1, LASV Josiah (lineage IV) glycoprotein, …; assay: cell-based or functional assay
[5] = biological target: T1, LASV Josiah (lineage IV) glycoprotein, …; assay: cell-based or functional assay; remark: listed apart in the source
LCMV WE strain GP = biological target: T2, LCMV WE strain GP; assay: cross-reactivity, immunofluorescence on GP-transfected 293T cells

Row | Binder | IC50 (neutralization) [1] | IC80 (neutralization) [1] | IC50 (neutralization) [2] | IC80 (neutralization) [2] | IC50 (neutralization) [3] | IC80 (neutralization) [3] | IC50 (neutralization) [4] | IC80 (neutralization) [4] | IC50 (neutralization) [5] | IC80 (neutralization) [5] | binding result (LCMV WE strain GP)
1 | 37.2G (antibody, V domains shown) VH: EVQLVESGGGLVKPGGSRRLSCAASGFTFSRDTMTWVRQAPGKGLEWVASISSGSSDINYADSVKGRFTISRDNGKNSLYLHMNSLRADDTAIYYCARDPRSGISGRYGMDVWGQGTTVTVSS VL: DIVLTQSPGTLSLSPGERATLSCRASQSVNSIFLAWYQQKPGQAPRLLIYGASSRATGIPDRFSGSGSGTDFTLTISRLEPEDFAVYYCQQYHSSPKLTFGGGTKVEIKR | 1.1 µg/mL | 10 µg/mL | 2.02 µg/mL | 5.23 µg/mL | > 20 µg/mL | > 20 µg/mL | 5.6 µg/mL | 16 µg/mL | 0.405 µg/mL | 1.78 µg/mL | binds
2 | 37.7H (antibody, V domains shown) VH: EVQLVQSGGGLVKAGGSLRLSCAASGFTFSTYSMNWIRQAPGKGLEWVASISSRSGSHINYVDSVKGRFTISRDNARDLLYLQMNSLRVDDSALYYCARDRRSGTSPLPLDVWGQGTTVTVFS VL: DQSALTQPASVSGSPGQSITISCTGTGSDIGGYNFVSWYQQYPGKAPKLIIYEVRIRASGVSNRFSGSKSGNTASLTISGLQAEDEADYYCNSYSIHSPWVFGGGTKLTVLR | 0.255 µg/mL | 0.537 µg/mL | 0.077 µg/mL | 0.202 µg/mL | 0.301 µg/mL | 1.66 µg/mL | 0.191 µg/mL | 0.532 µg/mL | 0.134 µg/mL | 0.214 µg/mL | binds
